The assay has as its target xenopus Lgr4 ectodomain (residues 24-455) (xenopus). Kind of assay: SEC + other: dynamic light scattering.

The source of these data is publication PMC3777832.

For “xenopus Lgr4 ectodomain (residues 24-455) (domain or fragment)”, the stoichiometry N came to 2.
